{
  "source": "paper PMC2688778",
  "about": "(Structure (London, England : 1993), 2009)",
  "binders": {"B1": {"name": "F25 (dsDNA)", "DNA 1": "TAGAGCTTAATTGCTGAATCTGGTG", "DNA 2": "CACCAGATTCAGCAATTAAGCTCTA"}},
  "test_in_all_cases": "fluorescence anisotropy",
  "key": {"RecE564 W859A": {"target": "T1, RecE564 W859A (Escherichia coli K12, UniProt P15032 564-866, W859A)", "T1 sequence": "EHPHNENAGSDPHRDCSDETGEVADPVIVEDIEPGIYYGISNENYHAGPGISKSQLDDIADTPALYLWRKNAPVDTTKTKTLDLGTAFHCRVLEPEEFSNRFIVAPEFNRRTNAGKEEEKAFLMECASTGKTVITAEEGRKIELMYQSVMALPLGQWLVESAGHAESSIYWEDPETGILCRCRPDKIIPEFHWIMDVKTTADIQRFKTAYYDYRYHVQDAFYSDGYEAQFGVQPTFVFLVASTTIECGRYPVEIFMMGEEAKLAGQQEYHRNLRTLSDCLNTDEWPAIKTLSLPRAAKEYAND"}, "lambda exonuclease": {"target": "T2, lambda exonuclease (bacteriophage lambda, UniProt P03697 1-226)", "T2 sequence": "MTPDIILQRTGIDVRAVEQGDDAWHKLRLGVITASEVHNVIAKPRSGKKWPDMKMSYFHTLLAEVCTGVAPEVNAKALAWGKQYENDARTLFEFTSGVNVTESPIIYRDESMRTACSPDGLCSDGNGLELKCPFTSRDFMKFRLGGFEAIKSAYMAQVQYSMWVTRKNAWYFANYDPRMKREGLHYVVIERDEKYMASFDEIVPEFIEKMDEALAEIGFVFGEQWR"}, "RecE564 WT": {"target": "T3, RecE564 WT (Escherichia coli K12, UniProt P15032 564-866)", "T3 sequence": "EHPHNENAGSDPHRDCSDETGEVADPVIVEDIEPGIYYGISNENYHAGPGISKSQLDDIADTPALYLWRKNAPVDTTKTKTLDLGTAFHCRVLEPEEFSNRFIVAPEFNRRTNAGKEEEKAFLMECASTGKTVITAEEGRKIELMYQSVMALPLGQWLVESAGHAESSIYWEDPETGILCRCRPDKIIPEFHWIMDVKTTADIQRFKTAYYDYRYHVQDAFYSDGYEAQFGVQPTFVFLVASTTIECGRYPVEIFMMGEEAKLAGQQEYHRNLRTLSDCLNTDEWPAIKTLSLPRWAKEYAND"}, "RecE564 S615A": {"target": "T4, RecE564 S615A (Escherichia coli K12, UniProt P15032 564-866, S615A)", "T4 sequence": "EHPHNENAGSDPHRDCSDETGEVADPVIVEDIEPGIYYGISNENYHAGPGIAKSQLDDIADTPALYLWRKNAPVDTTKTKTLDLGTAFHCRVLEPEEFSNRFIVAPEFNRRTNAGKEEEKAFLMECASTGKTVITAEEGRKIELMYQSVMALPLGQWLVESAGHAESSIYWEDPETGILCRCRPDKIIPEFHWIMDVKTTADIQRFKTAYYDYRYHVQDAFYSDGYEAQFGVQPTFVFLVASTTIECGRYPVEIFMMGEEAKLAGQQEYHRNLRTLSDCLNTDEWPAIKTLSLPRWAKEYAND"}, "RecE564 S617A": {"target": "T5, RecE564 S617A (Escherichia coli K12, UniProt P15032 564-866, S617A)", "T5 sequence": "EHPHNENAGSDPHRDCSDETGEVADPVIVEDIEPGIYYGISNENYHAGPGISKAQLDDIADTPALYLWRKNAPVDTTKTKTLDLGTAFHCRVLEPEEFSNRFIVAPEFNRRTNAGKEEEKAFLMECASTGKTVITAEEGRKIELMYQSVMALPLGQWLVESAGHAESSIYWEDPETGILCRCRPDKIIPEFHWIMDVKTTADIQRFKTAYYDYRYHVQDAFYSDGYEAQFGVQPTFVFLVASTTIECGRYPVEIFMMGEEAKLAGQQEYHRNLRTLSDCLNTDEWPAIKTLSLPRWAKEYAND"}, "RecE564 K704A": {"target": "T6, RecE564 K704A (Escherichia coli K12, UniProt P15032 564-866, K704A)", "T6 sequence": "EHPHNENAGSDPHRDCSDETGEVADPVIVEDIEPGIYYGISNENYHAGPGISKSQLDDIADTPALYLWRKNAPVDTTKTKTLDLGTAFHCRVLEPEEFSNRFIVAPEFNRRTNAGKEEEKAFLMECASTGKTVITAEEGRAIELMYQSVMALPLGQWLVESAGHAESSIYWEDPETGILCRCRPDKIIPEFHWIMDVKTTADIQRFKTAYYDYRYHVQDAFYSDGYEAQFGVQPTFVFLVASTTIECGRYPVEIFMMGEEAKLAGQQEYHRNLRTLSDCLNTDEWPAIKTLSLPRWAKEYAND"}, "RecE564 H609A": {"target": "T7, RecE564 H609A (Escherichia coli K12, UniProt P15032 564-866, H609A)", "T7 sequence": "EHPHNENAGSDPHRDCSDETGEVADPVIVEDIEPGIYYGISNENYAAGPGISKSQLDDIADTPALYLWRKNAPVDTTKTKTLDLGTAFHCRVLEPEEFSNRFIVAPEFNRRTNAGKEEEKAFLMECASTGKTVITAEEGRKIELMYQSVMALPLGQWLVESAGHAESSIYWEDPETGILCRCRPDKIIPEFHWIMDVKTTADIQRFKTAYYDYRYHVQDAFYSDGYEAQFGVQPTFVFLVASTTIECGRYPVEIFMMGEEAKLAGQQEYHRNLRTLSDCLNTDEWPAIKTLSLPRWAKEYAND"}},
  "data": [
    {"binder": "B1", "values": [
      {"measurement": "Kd", "setting": "RecE564 W859A", "result": "350 ± 20", "unit": "nM"},
      {"measurement": "Kd", "setting": "lambda exonuclease", "result": "161 ± 2", "unit": "nM"},
      {"measurement": "Kd", "setting": "RecE564 WT", "result": "70 ± 2", "unit": "nM"},
      {"measurement": "Kd", "setting": "RecE564 S615A", "result": "100 ± 4", "unit": "nM"},
      {"measurement": "Kd", "setting": "RecE564 S617A", "result": "150 ± 20", "unit": "nM"},
      {"measurement": "Kd", "setting": "RecE564 K704A", "result": "330 ± 50", "unit": "nM"},
      {"measurement": "Kd", "setting": "RecE564 H609A", "result": "50 ± 3", "unit": "nM"}
    ]}
  ]
}
